Assay in all cases: cell-based or functional assay
The target in test [1] is HIV-1 Env of isolate MGRM-Chronic-B-004, clade B (HIV-1).
The target in test [2] is HIV-1 Env of isolate SF162 (HIV-1) (UniProt P19550).
The target in test [3] is HIV-1 Env of isolate 92RW020 (clade A pseudovirus) (HIV-1).
Test [4] addresses HIV-1 Env of isolate MGRM-A-005 (clade A pseudovirus) (HIV-1).
For test [5], the target named is HIV-1 Env of isolate MGRM-D-019 (clade D pseudovirus) (HIV-1).
Test [6] addresses HIV-1 Env of isolate 94UG103 (pseudovirus) (HIV-1).
For test [7], the target named is HIV-1 Env of isolate MGRM-Chronic-B-024 (HIV-1).
The target of test [8] is HIV-1 Env of isolate 92UG037 (pseudovirus) (HIV-1).
Test [9] has as its target HIV-1 Env of pseudovirus MGRM-F1-006 (HIV-1).
For test [10], the target named is HIV-1 Env of isolate SC422661.8 (HIV-1).
The target of test [11] is HIV-1 Env of isolate TRO.11 (HIV-1).
Test [12] deals with HIV-1 Env of isolate TRJ04551.58 (HIV-1).
For test [13], the target named is HIV-1 Env of isolate 92WR024 (pseudovirus) (HIV-1).
Test [14] addresses HIV-1 Env of isolate MGRM-Chronic-B-010 (HIV-1).
For test [15], the target named is HIV-1 Env of isolate MGRM-AE-006 (pseudovirus) (HIV-1).
Test [16] concerns the target HIV-1 Env of isolate QH0692.42 (HIV-1).
The target of test [17] is HIV-1 Env of isolate 93WR029 (pseudovirus) (HIV-1).
Test [18] addresses HIV-1 Env of isolate MGRM-Chronic-B-023 (HIV-1).
The target of test [19] is HIV-1 Env of isolate MGRM-Chronic-B-017 (HIV-1).
Test [20] concerns the target HIV-1 Env of isolate 92WR020 (pseudovirus) (HIV-1).
Test [21] addresses HIV-1 envelope glycoprotein (Env) of isolate MG RM-AG-005 (HIV-1).
In test [22] the target is HIV-1 Env of isolate MGRM-AE-004 (pseudovirus) (HIV-1).
In test [23] the target is HIV-1 Env of isolate MGRM-Chronic-B-020 (HIV-1).
Test [24] addresses HIV-1 Env of isolate 98IN022 (HIV-1).
Test [25] concerns the target HIV-1 Env of isolate 97ZA012 (HIV-1).
Test [26] has as its target HIV-1 Env of isolate VLGCB3 (HIV-1).
The target of test [27] is HIV-1 Env of isolate 93IN905 (HIV-1).
Test [28] has as its target HIV-1 Env of isolate MGRM-Chronic-B-018 (HIV-1).
Test [29] concerns the target HIV-1 Env of isolate THR0.18 (HIV-1).
In test [30] the target is HIV-1 Env of isolate 93UG077 (pseudovirus) (HIV-1).
Test [31] deals with HIV-1 Env of isolate PVO.4 (HIV-1).
Test [32] addresses HIV-1 Env of isolate MGRM-Chronic-B-012 (HIV-1).
In test [33] the target is HIV-1 Env of isolate MGRM-Chronic-B-011 (HIV-1).
For test [34], the target named is HIV-1 Env of isolate 92UG031 (pseudovirus) (HIV-1).
For test [35], the target named is HIV-1 Env of isolate 92WR021 (pseudovirus) (HIV-1).
In test [36] the target is HIV-1 Env of isolate NL43 (HIV-1).
Test [37] has as its target HIV-1 Env of isolate JRCSF (HIV-1) (UniProt P20871).
The target in test [38] is HIV-1 Env of isolate 93MW959 (HIV-1).
Test [39] addresses HIV-1 Env of isolate MGRM-AE-005 (pseudovirus) (HIV-1).

Chain of 1443_C16 (PG16) (TCN-116) (antibody) (VH): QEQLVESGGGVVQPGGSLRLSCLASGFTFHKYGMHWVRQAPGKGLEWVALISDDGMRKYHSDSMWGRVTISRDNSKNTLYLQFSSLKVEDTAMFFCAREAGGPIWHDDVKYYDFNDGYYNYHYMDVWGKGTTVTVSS
Chain of 1443_C16 (PG16) (TCN-116) (antibody) (VL): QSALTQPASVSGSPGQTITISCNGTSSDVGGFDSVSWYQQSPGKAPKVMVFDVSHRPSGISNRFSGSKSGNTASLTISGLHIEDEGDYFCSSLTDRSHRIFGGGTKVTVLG
Chain of PGT-141 (4964_G22; 4993_K13) (antibody) (VH): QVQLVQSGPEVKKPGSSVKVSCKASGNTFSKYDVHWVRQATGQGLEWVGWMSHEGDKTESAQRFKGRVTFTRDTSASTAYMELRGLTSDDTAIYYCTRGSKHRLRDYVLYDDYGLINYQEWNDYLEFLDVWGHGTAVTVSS
Chain of PGT-141 (4964_G22; 4993_K13) (antibody) (VL): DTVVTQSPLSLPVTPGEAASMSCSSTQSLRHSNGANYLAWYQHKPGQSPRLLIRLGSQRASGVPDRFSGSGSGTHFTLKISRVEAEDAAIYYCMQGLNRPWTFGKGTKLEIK

As to 4E10 (antibody), the IC50 (µg/ml), pseudovirus neutralization is 3.7 µg/mL in [1], 4.28 µg/mL in test [2], 4.54 µg/mL in test [3] and 4.09 µg/mL in [4]. The IC50, pseudovirus neutralization in test [5] turned out to be 0.04 µg/mL.
The corresponding values for b12 (antibody) are 0.26 µg/mL, 0.02 µg/mL, > 50 µg/mL, 3.64 µg/mL and > 50 µg/mL.
Turning to 1443_C16 (PG16) (TCN-116) (antibody), the IC50 (µg/ml), pseudovirus neutralization in test [1] was 0.01 µg/mL; in [2], > 50 µg/mL; in [3], 0.28 µg/mL; in test [4], 0.09 µg/mL. The same substance had an IC50, pseudovirus neutralization in [5] of 0.01 µg/mL.
In the case of VRC01 (antibody), the IC50 (µg/mL), single-round pseudovirus neutralization amounted to 0.285 µg/mL in test [6]; 0.245 µg/mL in test [8]; 0.327 µg/mL in test [13]; 4.65 µg/mL in [15]; 1.57 µg/mL in [17]; 0.13 µg/mL in [20]. Moreover, the IC50 (µg/mL), single-round pseudovirus neutralization in test [22] was 0.187 µg/mL; in [30], 0.097 µg/mL; in [34], 0.469 µg/mL; in [35], 0.066 µg/mL; in test [39] it was 0.029 µg/mL. Further, the IC50, pseudovirus neutralization in test [7] was 0.377 µg/mL; in test [2], 0.421 µg/mL; in test [9], 2.86 µg/mL; in [10], 0.179 µg/mL; in test [11] it was 0.186 µg/mL; in test [12], 0.06 µg/mL. Also, the IC50, pseudovirus neutralization in [14] was determined as 0.156 µg/mL; in test [16], 1.19 µg/mL; in test [18], 0.275 µg/mL; in [19], 0.141 µg/mL; in test [23], 0.424 µg/mL; in test [24], 0.342 µg/mL. Moreover, the IC50, pseudovirus neutralization in [25] turned out to be 0.088 µg/mL; in test [26], 0.108 µg/mL; in test [27], 0.138 µg/mL; in test [28], 0.328 µg/mL; in [29], 2.46 µg/mL; in test [31], 0.218 µg/mL. Also, the IC50, pseudovirus neutralization amounted to 1.03 µg/mL in [32]; 0.587 µg/mL in test [33]; 0.1 µg/mL in [36]; 0.164 µg/mL in test [37]; 0.053 µg/mL in test [38]. The substance further showed an IC50 in test [21] of 0.091 µg/mL.
With PGT-141 (4964_G22; 4993_K13) (antibody), the IC50, pseudovirus neutralization in [7] is 0.011 µg/mL; in test [2], > 50 µg/mL; in test [9], 8.99 µg/mL; in test [10], 1.66 µg/mL; in test [11], 0.383 µg/mL; in test [12], > 50 µg/mL. For the same substance, the IC50, pseudovirus neutralization in [14] was > 50 µg/mL; in test [16], > 50 µg/mL; in [18] it was 0.318 µg/mL; in [19] it was 0.147 µg/mL; in test [23] it was > 50 µg/mL; in [24], 0.001 µg/mL. The IC50, pseudovirus neutralization is > 50 µg/mL in test [25]; > 50 µg/mL in test [26]; 0.001 µg/mL in test [27]; 0.572 µg/mL in [28]; 0.007 µg/mL in [29]; 0.113 µg/mL in [31]. Further, the IC50, pseudovirus neutralization in [32] is > 50 µg/mL; in test [33], 2.24 µg/mL; in [36], > 50 µg/mL; in [37] it was 0.009 µg/mL; in test [38], 0.003 µg/mL. Moreover, the IC50 in test [21] came out at 0.497 µg/mL.

The record behind these values is patent US20240132578A1.
